Data from patent publication US20170081647A1, “GENETIC DETECTION PLATFORM” (Pharmozyme, Inc., priority 2014, published 2017).

Tests used:
[1] = biological target: T1, Taq polymerase (Thermus aquaticus, UniProt P19821, A391P/R392G/V390W); assay: Polymerase activity in the presence of a polymerase inhibitor (amplification reaction at 45° C.); format: biochemical
T1 construct: made in house; host or cells: E. coli Rosetta 2 (DE3), plasmid pET21-Biotin-His6-ABP-Taq
Protocol: The assay was fixed at a final volume of 100 μl, and contained reaction components at the following final concentrations: oligonucleotide of SEQ ID NO: 8; 40 μM, dNTPs; 200 μM (each), APS; 1.6 mM, ATP sulfurylase; 0.12 Units, D-Luciferin; 0.3 mM, and Luciferase; 3 μg.
FIG. 9 illustrates a luminescence assay that indicates the Taq polymerase activity. As shown in FIG. 9A and FIG. 9B, a time course is initially indicated with a lag phase, normally less than 2 minutes, followed by a linear increase in luminescence. The rate of luminescence increase (slope) defines the Taq polymerase activity.
Hot Start Taq DNA polymerase was obtained from New England BioLabs (NEB). Taq polymerase from New England BioLabs was tested as a control. An amplification reaction was performed to determine the activity of Bio-HIS-ABS-Taq in the presence of human serum albumin (HSA) at 45° C. and to compare the activity of Bio-HIS-ABS-Taq in the presence of HSA with Hot Start Taq polymerase (NEB). The ratio of Bio-HIS-ABS-Taq to HSA is 1:1. Table 2 illustrates the activity of Bio-HIS-ABS-Taq in the presence of HSA compared to the activity of Hot Start Taq Polymerase from NEB.

[2] = biological target: human serum albumin (HSA), P02768
[3] = Protamine-based method optimization: Qubit protein remaining; conditions: protamine beads
Protocol: For protamine attachment, NHS-activated Sepharose beads were utilized and coupling was performed in 0.1 M HEPES buffer (pH 7.0), with a protein to bead ratio of 25 mg of the protein to 1 ml bead suspension (0.5 ml packed), pre-washed with 1 mM HCl. Attachment of protamine to beads was completed by leaving the suspension on rotation overnight at 4° C., followed by washing with 0.1 M Tris (pH 8.5), to block any remaining NHS groups on beads. The procedure ensured overall coverage of Sepharose beads with the highly charged protamine molecules.
DNA contaminant removal was accomplished using 15 μl of packed protamine-Sepharose beads per mg Taq polymerase, in 0.05 M sodium acetate, 0.2 M potassium chloride, pH 5.0. After leaving on rotation for 10 minutes, the suspension was centrifuged for 3 minutes at 1000×g, and the supernatant containing the enzyme was tested for DNA contamination, using a Qubit quantitation system.
pH Optimization: pH at 4.4, 4.75, 5.5, 6, and 7.7 were tested. Buffers used for adjusting the pH included acetate pH 4, acetate pH 5, MES pH 6, HEPES pH 7, and Tris pH 8. In each tube, 4 ul of the protamine bead slurry (protamine from Sigma-Aldrich) was used, 10 ul of buffer, 7 ul of 3.5 M KCl, and 140 ul of the buffer exchanged Bio-HIS-ABS-Taq polymerase. The initial concentrations of the polymerase and DNA contaminant were 0.478 mg/mL and 65.3 ng/mL, respectively.
Table 4 illustrates the final concentrations of the Bio-HIS-ABS-Taq polymerase and DNA contaminant from a second set of experiment. The initial concentrations of the polymerase and DNA contaminant were 0.55 mg/mL and 65.3 ng/mL, respectively.
Table 5 illustrates the final concentrations of the Bio-HIS-ABS-Taq polymerase and DNA contaminant from an experiment that modulates the salt concentration. The initial concentrations of the polymerase and DNA contaminant were 0.487 mg/mL and 82.9 ng/mL, respectively.

[4] = relative to Control #2 (Taq, NEB)
[5] = KCl 0.145 M, initial polymerase 0.487 mg/mL
[6] = KCl 0.194 M, initial polymerase 0.487 mg/mL
[7] = KCl 0.242 M, initial polymerase 0.487 mg/mL
[8] = KCl 0.291 M, initial polymerase 0.487 mg/mL
[9] = KCl 0.340 M, initial polymerase 0.487 mg/mL
[10] = pH 4.4, initial polymerase 0.478 mg/mL
[11] = pH 4.75, initial polymerase 0.478 mg/mL
[12] = pH 5.5, initial polymerase 0.478 mg/mL
[13] = pH 6, initial polymerase 0.478 mg/mL
[14] = pH 7.7, initial polymerase 0.478 mg/mL
[15] = second set, pH 4.03, initial polymerase 0.55 mg/mL
[16] = second set, pH 4.22, initial polymerase 0.55 mg/mL
[17] = second set, pH 4.40, initial polymerase 0.55 mg/mL
[18] = second set, pH 4.80, initial polymerase 0.55 mg/mL

Question: Which “% activity” value [1, 4] does the source give for “Hot Start (NEB): Hot Start Taq DNA polymerase obtained from New England BioLabs (NEB)” here?
Answer: Its value is 91%.

Question: Which “% activity” value ([1]; Bio-HIS-ABS-Taq to HSA 1:1, relative to Control #1 (Taq, NEB)) does the source give for “Control #1 (Taq, NEB): Taq polymerase from New England BioLabs, tested as a control” here?
Answer: The value was 100%.

Question: And the “% activity” value [1, 4]?
Answer: Its value is 100%.

B1: Bio-HIS-ABS-Taq polymerase (protein)
chain: MASSLRQILDSQKIEWRSNAGGASHHHHHHGGASLAEAKVLANRELDKYGVSDYHKNLINNAKTVEGVKDLQAQVVESAKKARISEATDGLSDFLKSQTPAEDTVKSIELAEAKVLANRELDKYGVSDYYKNLINNAKTVEGVKALIDEILAALPGTFAHYMDPNLEALFQGPNSLPLFEPKGRVLLVDGHHLAYRTFHALKGLTTSRGEPVQAVYGFAKSLLKALKEDGDAVIVVFDAKAPSFRHEAYGGYKAGRAPTPEDFPRQLALIKELVDLLGLARLEVPGYEADDVLASLAKKAEKEGYEVRILTADKDLYQLLSDRIHVLHPEGYLITPAWLWEKYGLRPDQWADYRALTGDESDNLPGVKGIGEKTARKLLEEWGSLEALLKNLDRLKPAIREKILAHMDDLKLSWDLAKVRTDLPLEVDFAKRREPDRERLRAFLERLEFGSLLHEFGLLESPKALEEAPWPPPEGAFVGFVLSRKEPMWADLLALAAARGGRVHRAPEPYKALRDLKEARGLLAKDLSVLALREGLGLPPGDDPMLLAYLLDPSNTTPEGWPGRYGGEWTEEAGERAALSERLFANLWGRLEGEERLLWLYREVERPLSAVLAHMEATGVRLDVAYLRALSLEVAEEIARLEAEVFRLAGHPFNLNSRDQLERVLFDELGLPAIGKTEKTGKRSTSAAVLEALREAHPIVEKILQYRELTKLKSTYIDPLPDLIHPRTGRLHTRFNQTATATGRLSSSDPNLQNIPVRTPLGQRIRRAFIAEEGWLLVALDYSQIELRVLAHLSGDENLIRVFQEGRDIHTETASWMFGVPREAVDPLMRRAAKTINFGVLYGMSAHRLSQELAIPYEEAQAFIERYFQSFPKVRAWIEKTLEEGRRRGYVETLFGRRRYVPDLEARVKSVREAAERMAFNMPVQGTAADLMKLAMVKLFPRLEEMGARMLLQVHDELVLEAPKERAEAVARLAKEVMEGVYPLAVPLEVEVGIGEDWLSAKE
Question: Which % activity [2] does the source give for B1 here?
Answer: The % activity was 73%.

B2: Bio-HIS-ABS-Taq polymerase: Taq polymerase with N-terminal biotin-tag, His6 and albumin-binding protein fusion (SEQ ID NO: 1), expressed in E. coli (protein)
chain: B1 chain
modifications: N-terminal biotin; Synthetic polypeptide Bio-HIS-ABS-Taq polymerase
Question: Which “% protein remaining (comp to buffer exch)” value (“% protein remaining” below) [3, 5] does the source give for B2 here?
Answer: Its value is 105%.

Question: And the Qubit protein remaining [3, 5]?
Answer: The Qubit protein remaining was 0.513 mg/mL.

Question: What about the “% protein remaining” value [3, 6] of the same molecule?
Answer: The value was 101%.

Question: What about the Qubit protein remaining [3, 6] of the same molecule?
Answer: The Qubit protein remaining was 0.495 mg/mL.

Question: What about the “% protein remaining” value [3, 7] of the same molecule?
Answer: The value was 99.9%.

Question: What about the Qubit protein remaining [3, 7] of the same molecule?
Answer: The Qubit protein remaining was 0.487 mg/mL.

Question: And the “% protein remaining” value [3, 8]?
Answer: Its value is 70%.

Question: And the Qubit protein remaining [3, 8]?
Answer: The Qubit protein remaining was 0.339 mg/mL.

Question: And the “% protein remaining” value [3, 9]?
Answer: Its value is 55%.

Question: What about the Qubit protein remaining [3, 9] of the same molecule?
Answer: The Qubit protein remaining was 0.271 mg/mL.

Question: What about the “% protein remaining” value [3, 10] of the same molecule?
Answer: Its value is 97%.

Question: What about the Qubit protein remaining [3, 10] of the same molecule?
Answer: Its Qubit protein remaining is 0.462 mg/mL.

Question: What about the “% protein remaining” value [3, 11] of the same molecule?
Answer: The value was 60%.

Question: What about the Qubit protein remaining [3, 11] of the same molecule?
Answer: Its Qubit protein remaining is 0.288 mg/mL.

Question: And the “% protein remaining” value [3, 12]?
Answer: Its value is 61%.

Question: What about the Qubit protein remaining [3, 12] of the same molecule?
Answer: The Qubit protein remaining was 0.292 mg/mL.

Question: And the “% protein remaining” value [3, 13]?
Answer: The value was 64%.

Question: And the Qubit protein remaining [3, 13]?
Answer: Its Qubit protein remaining is 0.308 mg/mL.

Question: And the “% protein remaining” value [3, 14]?
Answer: The value was 75%.

Question: What about the Qubit protein remaining [3, 14] of the same molecule?
Answer: The Qubit protein remaining was 0.360 mg/mL.

Question: What about the “% protein remaining” value [3, 15] of the same molecule?
Answer: Its value is 94%.

Question: What about the Qubit protein remaining [3, 15] of the same molecule?
Answer: Its Qubit protein remaining is 0.459 mg/mL.

Question: And the “% protein remaining” value [3, 16]?
Answer: The value was 95%.

Question: And the Qubit protein remaining [3, 16]?
Answer: Its Qubit protein remaining is 0.486 mg/mL.

Question: And the “% protein remaining” value [3, 17]?
Answer: The value was 96%.

Question: What about the Qubit protein remaining [3, 17] of the same molecule?
Answer: Its Qubit protein remaining is 0.505 mg/mL.

Question: And the “% protein remaining” value [3, 18]?
Answer: The value was 93%.

Question: What about the Qubit protein remaining [3, 18] of the same molecule?
Answer: The Qubit protein remaining was 0.497 mg/mL.
